* marks the point of attachment. Dnp = O=[N+]([O-])c1ccc(*)c([N+](=O)[O-])c1

The target in the test is SARS-CoV-2 main protease (M^pro), tag-free, native N and C termini (SARS-CoV-2).

B1: FRET substrate MCA-AVLQSGFR-Lys(Dnp)-Lys-NH2 (peptide)
peptide: {MCA}-AVLQSGFRK(Dnp)K-NH2
The molecule B1 had a Michaelis constant (Km) of the FRET-based enzymatic assay; M^pro 100 nM, substrate at various concentrations, Lineweaver-Burk plot of 1.41 µM.

Values taken from paper PMC7923362.
